Patent publication US20060026702A1, “Phosphoinositide 3-kinase mediated inhibition of GPCRs” (DUKE UNIVERSITY, priority 2002, published 2006)

Experiments:
Type in all cases: cell-based
phospho-PKB = test: PKB activation (phospho-PKB immunoblot) in HEK 293 cells; settings: IGF, carbachol or isoproterenol stimulation; HEAT transfected
βARK1/PI3K interaction = target: T1, βARK1/PI3K interaction (Bos taurus, UniProt P21146); test: βARK1 associated PI3K activity in HEK 293 cells co-transfected with HEAT or PI3KΔHEAT
T1 construct: recognizes both full length βARK1 and the βARKct; expressed in transfected cells; host or cells: HEK 293
T1 sequence (P21146 1-689): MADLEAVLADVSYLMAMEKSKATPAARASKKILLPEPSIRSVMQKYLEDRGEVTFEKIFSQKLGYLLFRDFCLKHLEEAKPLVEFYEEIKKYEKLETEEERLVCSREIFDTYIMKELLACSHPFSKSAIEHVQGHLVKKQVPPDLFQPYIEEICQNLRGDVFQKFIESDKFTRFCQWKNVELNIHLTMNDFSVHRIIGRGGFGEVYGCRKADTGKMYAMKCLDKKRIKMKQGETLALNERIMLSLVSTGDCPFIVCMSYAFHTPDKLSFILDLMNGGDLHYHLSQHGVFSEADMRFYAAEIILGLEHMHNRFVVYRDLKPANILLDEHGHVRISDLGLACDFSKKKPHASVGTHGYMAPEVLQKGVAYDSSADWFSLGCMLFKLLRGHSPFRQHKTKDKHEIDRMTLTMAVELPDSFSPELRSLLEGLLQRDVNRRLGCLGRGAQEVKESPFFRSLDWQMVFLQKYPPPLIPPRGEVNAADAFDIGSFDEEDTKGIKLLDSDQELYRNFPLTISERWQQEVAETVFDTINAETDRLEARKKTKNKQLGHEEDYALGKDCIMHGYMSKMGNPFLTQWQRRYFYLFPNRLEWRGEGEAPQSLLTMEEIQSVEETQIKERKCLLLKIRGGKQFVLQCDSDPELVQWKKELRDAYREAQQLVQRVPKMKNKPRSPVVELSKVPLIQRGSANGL
Procedure: The present inventors determined that overexpression of the 197 amino acid HEAT domain of PI3K competed for endogenous PI3K binding to βARK1 in living cells. HEK 293 cells were co-transfected with plasmids containing the βARK1 cDNA (2 μg) and increasing concentrations of the HEAT domain cDNA (ranging from 0 to 6 μg). […] The maximal reduction of βARK1 associated PI3K activity occurred when cells were co-transfected with 4 μg of HEAT cDNA (FIG. 9B). Summary results of n=5 experiments. *, p<0.0005. The data was normalized to βARK1 associated PI3K activity in cells transfected with βARK1 only. Furthermore, FLAG tagged HEAT protein co-immunoprecipitated with βARK1 monoclonal antibodies in the co-transfected HEK 293 cells.
The absence of the HEAT domain in an otherwise intact PI3K molecule affected the association of βARK1 with endogenous PI3K in cells. HEK 293 cells were co-transfected with plasmids containing cDNAs for βARK1 (2 μg), βARK1 plus HEAT (4 μg), and βARK1 plus PI3KΔHEAT (4 μg). Cell lysates were immunoprecipitated with a βARK1 monoclonal antibody and assayed for the associated PI3K activity. Expression of PI3KΔHEAT had no effect on the endogenous βARK1/PI3K interaction, whereas overexpression of HEAT abolished this interaction (FIGS. 9C and 9D). […] The data was normalized to βARK1 associated PI3K activity in cells transfected with βARK1 only.
Cytosolic and membrane fractions were prepared and analyzed for βARK1 associated PI3K activity. […] Membrane fractions were prepared from the HEK293 cells co-transfected with the βARK1 (2 μg), βARK1 and HEAT domain (4 μg) containing plasmids.

V2R-GFP = target: T2, V2R-GFP (Homo sapiens, UniProt P30518); test: Endocytosis of V2R-GFP in live cells by confocal microscopy; settings: AVP 10 μM; HEAT co-expressed
T2 construct: expressed in transfected cells; host or cells: HEK 293
Procedure: Disruption of the endogenous βARK1/PI3K interaction by the HEAT protein attenuated V2R endocytosis. Endocytosis of V2R-GFP in live cells was monitored for 20 min following AVP (10 μM) stimulation in the absence or presence of HEAT protein co-expression using confocal microscopy. HEK 293 cells were transfected with either GFP-V2R (2 μg)/pRK5 (2 μg) or GFP-V2R (2 μg)/HEAT (2 μg). V2R internalization was followed in the same cell after agonist stimulation. Prior to agonist, the distribution of V2R-GFP was found distinctly at the plasma membrane (FIG. 14, 0 min). Following agonist treatment, there was redistribution of the V2R-GFP into membrane puncta consistent with entry into clathrin coated pits. With time, this was followed by the formation of cytoplasmic aggregates, and then with the complete loss of membrane fluorescence (FIG. 14, 6-24 min). […] In FIG. 14, panels on the left represent cells transfected with the V2R-GFP alone (panels show the same cell monitored at 0, 6, 12, 18, and 24 min following stimulation). Panels on the right represent cell transfected with V2R-GFP and HEAT (panels show the same cell monitored as above). In the absence of HEAT, agonist caused the internalization V2R5 as shown by the formation of distinct cytoplasmic aggregates and complete loss of membrane fluorescence.

B1: HEAT: 197 amino acid HEAT domain of PI3Kγ, FLAG epitope-tagged (SEQ ID NO: 2), overexpressed in cells (protein, listed as Homo sapiens)
chain: MDYKDDDDKHPIALPKHQPTPDDRVRAEMPNQLRKQLEAIIATDTAEDKELLWHFRYESLKHPKAYPKLFSSVKWGQQEIVAKTYQLLARREVWDQSALDVGLTMQLLDCNFSDENVRAIAVQKLESLEDDDVLHYLLQLVQAVKFEPYHDSALARFLLKRGLRNKRIGHFLFWFLRSEIAQSRHYQQRFAVILEAYLRGCGTA
modifications: FLAG tag
- cellular signaling downstream of PI3K (PKB activation) (phospho-PKB): no effect
- endogenous βARK1/PI3K interaction (βARK1/PI3K interaction; 4 μg cDNA co-transfected with βARK1): abolished
- agonist-induced translocation of PI3K to the membrane (βARK1/PI3K interaction; 10 μM isoproterenol 2 min, HEAT 4 μg): effectively abolished
- βARK1 associated PI3K activity with increasing HEAT cDNA (βARK1/PI3K interaction; HEAT cDNA 0 to 6 μg): effectively competed away
- receptor endocytosis (redistribution of V2R-GFP) (V2R-GFP): completely inhibited
